Each block holds one binder with its values, some of them ahead of it.
Key:
[1] = target: T1, Fc-tagged human PD-L1 extracellular domain (SinoBiological, cat. 10084-H02H) (human, UniProt Q9NZQ7 19-238); test: SPR
T1 construct: extracellular domain; also called hPD-L1; not shown: Fc tag of the bought protein

[2] = target: T1, Fc-tagged human PD-L1 extracellular …; test: SPR, captured Fc-PD-L1 ECD, scFv analyte, kinetic
[3] = target: T1, Fc-tagged human PD-L1 extracellular …; test: SPR, captured Fc-PD-L1 ECD, scFv analyte, steady state
[4] = target: T2, CD3e on Jurkat PD-1 NFAT reporter T cells or on T cells of human PBMCs (human, UniProt P07766 23-207); test: cell-based or functional assay
[5] = target: T2, CD3e on Jurkat PD-1 NFAT reporter T …; test: cell-based or functional assay; remark: listed apart in the source
[6] = target: T2, CD3e on Jurkat PD-1 NFAT reporter T …; test: cell-based or functional assay; remark: listed apart in the source
[7] = target: T3, recombinant human IL-23R (custom-made by Trenzyme) (human, UniProt Q5VWK5 24-355); test: SPR, immobilised IL-23R
T3 sequence (looked up): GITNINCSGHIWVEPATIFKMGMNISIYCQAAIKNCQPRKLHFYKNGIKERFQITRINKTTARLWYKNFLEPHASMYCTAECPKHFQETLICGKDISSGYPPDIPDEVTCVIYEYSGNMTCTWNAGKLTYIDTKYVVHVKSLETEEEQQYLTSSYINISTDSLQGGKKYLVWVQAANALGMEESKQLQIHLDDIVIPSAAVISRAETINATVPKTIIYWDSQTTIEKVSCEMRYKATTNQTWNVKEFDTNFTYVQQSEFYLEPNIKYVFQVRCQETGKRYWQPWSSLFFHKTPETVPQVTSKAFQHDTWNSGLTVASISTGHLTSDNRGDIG

[8] = target: T4, recombinant human Her2 ECD (SinoBiological, cat. 10004-HCCH) (human, UniProt P04626 23-652); test: SPR, immobilised Her2 ECD
T4 construct: extracellular domain; bought protein

[9] = target: T5, human HER2 expressed on cells (SK-OV3, MCF-7, HCC1954, HCC827) (human, UniProt P04626 23-1255); test: flow cytometry, MCF-7 cells
T5 construct: whole, on cells

[10] = target: T6, human serum albumin (human, UniProt P02768 25-609); test: SPR, immobilised HSA, pH 5.5
T6 construct: also called HSA; human SA

[11] = target: T7, mouse serum albumin (mouse, UniProt P07724 25-608); test: SPR, immobilised MSA, pH 5.5
T7 construct: also called MSA; mouse SA

[12] = target: T5, human HER2 expressed on cells (SK-OV3, …); test: flow cytometry, SK-OV3 cells
[13] = target: T1, Fc-tagged human PD-L1 extracellular …; test: SPR, captured Fc-PD-L1 ECD, kinetic
[14] = target: T1, Fc-tagged human PD-L1 extracellular …; test: SPR, captured Fc-PD-L1 ECD, steady state
[15] = target: T8, recombinant human CD3E ECD (SinoBiological, cat. 10977-H08H) (human, UniProt P07766 23-126); test: SPR, immobilised CD3e ECD, two-state model
T8 construct: extracellular domain; bought protein; also called CD3s

[16] = target: T5, human HER2 expressed on cells (SK-OV3, …); test: flow cytometry, SK-OV3 cells, no competitor
[17] = target: T5, human HER2 expressed on cells (SK-OV3, …); test: flow cytometry, IFNy-stimulated HCC827 cells
[18] = target: T5, human HER2 expressed on cells (SK-OV3, …); test: flow cytometry, IFNy-stimulated HCC1954 cells
[19] = target: T8, recombinant human CD3E ECD …; test: SPR, immobilised CD3e ECD, two-state model (ka1)
[20] = target: T8, recombinant human CD3E ECD …; test: SPR, immobilised CD3e ECD, two-state model (kd1)
[21] = target: T5, human HER2 expressed on cells (SK-OV3, …); test: flow cytometry, SK-OV3 cells, competitor 50 nM pertuzumab
[22] = target: T9, human PD-L1 expressed on cells (CHO-PD-L1, HCC1954, HCC827) (human, UniProt Q9NZQ7 19-290); test: flow cytometry, inhibition of biotinylated PD-1 binding to HCC827 cells
T9 construct: whole, on cells; also called hPD-L1; PD-L1 expressing cells

[23] = target: T9, human PD-L1 expressed on cells …; test: flow cytometry, inhibition of biotinylated PD-1 binding to HCC1954 cells
[24] = target: T1, Fc-tagged human PD-L1 extracellular …; test: SPR, captured Fc-PD-L1 ECD, kinetic; kinetic analysis; the patent holds the steady state KD (3.47E-07 M) for the valid one
[25] = target: T4, recombinant human Her2 ECD …; test: SPR, human Her-2
[26] = target: unidentified antigen on CHO PD-L1 cells bound by pertuzumab (the filing speculates hamster HER2); test: flow cytometry, CHO PD-L1 cells (residual binding)
[27] = target: T5, human HER2 expressed on cells (SK-OV3, …); test: flow cytometry, SK-OV3 cells, competitor 50 nM trastuzumab

fold reduction of affinity vs PRO830 [1]: 6500 fold | Kd [2]: 492 nM | koff [2]: 0.535 s⁻¹ | kon [2]: 1.09e+06 M⁻¹ s⁻¹ | Kd [3]: 487 nM
B1: PRO1434 (scFv, V domains shown)
VH: QVQLQESGPGLVKPSETLSLTCKVSGFSFSSGYDMCWIRQPPGKGLEWIGCVVAGSVDITYYASWAKGRVTISVDSSKNQFSLKLSSVTAADTAVYYCARKDAYSDAFNLWGQGTLVTVSS
VL: DIQMTQSPSSLSASVGDRVTITCQASQSINDYLAWYQQKPGKAPKLLIYKASTLASGVPSRFSGSGSGTDFTLTISSLQPEDFATYYCQAAYIITDIDNVFGTGTKVTVLG
notes: also called 33-03-G02 VL-Q108A/G109A

IC50, NFAT reporter, CHO-PD-L1 (A2 clone) cells [4]: 29.2 nM | IC50, NFAT reporter, HCC1954 cells [4]: 0.402 nM | IC50, NFAT reporter, HCC1954 cells, + nivolumab [4]: 0.125 nM | rel. max. activation vs PRO1497, NFAT reporter, HCC1954 cells [4]: 102% | rel. max. activation vs PRO1497 on HCC1954, NFAT reporter, CHO-PD-L1 (A2 clone) cells [4]: 62% | T cell activation IC50, PBMC with HCC827 cells [5]: 0.136 nM | T cell activation IC50, PBMC with HCC1954 cells [5]: 0.049 nM | Kd [8]: 0.406 nM | koff [8]: 6.26e-05 s⁻¹ | kon [8]: 154000 M⁻¹ s⁻¹ | EC50 [9]: 28.6 nM | Kd [10]: 0.81 nM | koff [10]: 0.000118 s⁻¹ | kon [10]: 145000 M⁻¹ s⁻¹ | Kd [11]: 19.5 nM | koff [11]: 0.00117 s⁻¹ | kon [11]: 60200 M⁻¹ s⁻¹ | EC50 [12]: 3.32 nM | koff [13]: 0.000367 s⁻¹ | kon [13]: 17600 M⁻¹ s⁻¹ | Kd [14]: 347 nM | KD1 [15]: 28.5 nM | Kd [15]: 15.7 nM | kd2 [15]: 0.00503 s⁻¹ | EC50 [16]: 4.09 nM | EC50 [17]: 3.9 nM | EC50 [18]: 27.8 nM | kon [19]: 190000 M⁻¹ s⁻¹ | koff [20]: 0.00542 s⁻¹ | EC50 [21]: 4.16 nM | IC50 [22]: 59.2 µg/mL | IC50 [23]: 0.601 µg/mL | Kd [24]: 20.9 nM
B2: PRO1543 (multispecific antibody)
chain 1: not shown
chain 2: DIQMTQSPSSLSASVGDRVTITCQASQSINDYLAWYQQKPGKAPKLLIYKASTLASGVPSRFSGSGSGTDFTLTISSLQPEDFATYYCQAAYIITDIDNVFGTGTKVTVLGGGGGSGGGGSGGGGSGGGGSQVQLQESGPGLVKPSETLSLTCKVSGFSFSSGYDMCWIRQPPGKGLEWIGCVVAGSVDITYYASWAKGRVTISVDSSKNQFSLKLSSVTAADTAVYYCARKDAYSDAFNLWGQGTLVTVSSGGGGSGGGGSEVQLVESGGGLVQPGGSLRLSCAASGFSLSSYDMSWVRQAPGKGLAWIGASYASGPTYYASWAKGRFTISRDNSKNTVYLQMNSLRAEDTATYFCARGGWTGTSHSNIWGQGTLVTVSSGGGSGGGSEVQLVESGGGLVQPGGSLRLSCAASGFSFSSSYWICWVRQAPGKCLEWVGCVFTGDGTTYYASWAKGRFTISRDNSKNTVYLQMNSLRAEDTATYFCARPVSVYYYGMDLWGQGTLVTVSS
notes: also called trastuzumab-based MATCH4
target cell killing IC50, 16 h, HCC1954 cells [6]: 0.00023 nM | target cell killing IC50, 16 h, MCF-7 cells [6]: 0.00311 nM | binding result [7]: no binding (tested: 90 nM highest concentration)

Kd [25]: 0.414 nM | koff [25]: 8.11e-05 s⁻¹ | kon [25]: 196000 M⁻¹ s⁻¹ | T cell activation IC50, PBMC with HCC827 cells [5]: 0.153 nM | T cell activation IC50, PBMC with HCC1954 cells [5]: 0.027 nM | EC50 [9]: 5.35 nM | EC50 [12]: 1.87 nM | EC50 [16]: 2.02 nM | EC50 [17]: 1.34 nM | EC50 [18]: 17.3 nM | EC50 [26]: 97.3 nM | EC50 [27]: 4.55 nM
B3: PRO1895 (multispecific antibody)
chain 1: DIQMTQSPSSLSASVGDRVTITCKASQDVSIGVAWYQQKPGKAPKLLIYSASYRYTGVPSRFSGSGSGTDFTLTISSLQPEDFATYYCQQYYIYPYTFGCGTKVTVLGGGGGSGGGGSGGGGSGGGGSEVQLVESGGGLVQPGGSLRLSCAASGFTFTDYTMDWVRQAPGKCLEWVADVNPNSGGSIYNQRFKGRFTLSVDRSKNTLYLQMNSLRAEDTAVYYCARNLGPSFYFDYWGQGTLVTVSSGGGGSGGGGSDVVMTQSPSSLSASVGDRVTITCQASQIISSRSAWYQQKPGQPPKLLIYQASKLASGVPSRFSGSGSGTDFTLTISSLQPEDFATYYCQCTYIDSNFGAFGCGTKLTVLGGGSGGSDIQMTQSPSSLSASVGDRVTITCQSSQSVFSNNYLAWFQQKPGQSPKRLIYSASTLASGVPSRFSGSGSGTDFTLTISSLQPEDFATYYCLGSYACSSADCYVFGTGTKVTVLG
chain 2: DIQMTQSPSSLSASVGDRVTITCQASQSINDYLAWYQQKPGKAPKLLIYKASTLASGVPSRFSGSGSGTDFTLTISSLQPEDFATYYCQAAYIITDIDNVFGTGTKVTVLGGGGGSGGGGSGGGGSGGGGSQVQLQESGPGLVKPSETLSLTCKVSGFSFSSGYDMCWIRQPPGKGLEWIGCVVAGSVDITYYASWAKGRVTISVDSSKNQFSLKLSSVTAADTAVYYCARKDAYSDAFNLWGQGTLVTVSSGGGGSGGGGSEVQLVESGGGLVQPGGSLRLSCAASGFSLSSYDMSWVRQAPGKGLAWIGASYASGPTYYASWAKGRFTISRDNSKNTVYLQMNSLRAEDTATYFCARGGWTGTSHSNIWGQGTLVTVSSGGGSGGGSEVQLVESGGGLVQPGGSLRLSCAASGFSFSSSYWICWVRQAPGKCLEWVGCVFTGDGTTYYASWAKGRFTISRDNSKNTVYLQMNSLRAEDTATYFCARPVSVYYYGMDLWGQGTLVTVSS
notes: also called pertuzumab-based MATCH4

From patent publication US20220411536A1 (NUMAB THERAPEUTICS, published 2022)
